This is an account of results in US20260167721A1 (ABLEXIS, published 2026).

Test [1] has as its target T1, human CD3 (TCR/CD3 complex) on the cell surface (human, UniProt P07766 23-207; P09693 23-182; P04234 22-171; P20963 22-164).
T1 construct: whole, on cells; also called CD3 on Pan-T cells; CD3 on Jurkat WT cells
Briefly: flow cytometry, Pan-T cells, 1 ug/mL.

Test [2] concerns the target T1, human CD3 (TCR/CD3 complex) on the cell …. The experiment in a line: flow cytometry, Pan-T cells, 10 ug/mL.
Test [3] has the same target. Briefly: flow cytometry, Jurkat WT cells, 1 ug/mL.
For test [4] the target is unchanged. Briefly: flow cytometry, Jurkat WT cells, 10 ug/mL. Background: A flow cytometer gives signals particle by particle.
The target of test [5] is T2, recombinant CD3 proteins (UniProt P07766 23-126).
T2 construct: elsewhere it uses human CD3 E/D and E/G heterodimers
T2 sequence (P07766 23-126): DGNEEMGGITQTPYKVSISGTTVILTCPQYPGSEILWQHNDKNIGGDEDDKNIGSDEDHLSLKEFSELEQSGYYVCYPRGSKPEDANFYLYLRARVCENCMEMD
The experiment in a line: Octet BLI, recombinant CD3; Full R^2 0.995. For orientation: Biolayer interferometry detects binding as a change in optical thickness at a sensor tip.

In test [6] the target is T1, human CD3 (TCR/CD3 complex) on the cell …. Briefly: flow cytometry, gMFI Jurkat WT over Jurkat TCRb KO, 1 ug/mL.
For test [7] the target is unchanged. The experiment in a line: flow cytometry, gMFI Jurkat WT over Jurkat TCRb KO, 10 ug/mL.
The target of test [8] is T2, recombinant CD3 proteins. Briefly: Octet BLI, recombinant CD3; Full R^2 0.997.
The target in test [9] is T2, recombinant CD3 proteins. The experiment in a line: Octet BLI, recombinant CD3; Full R^2 0.000*.

Where a chain is given by its changes, count along the chain named. Some results are limits rather than exact numbers.

T1 sequence (P07766 23-207, chain 1 of 4): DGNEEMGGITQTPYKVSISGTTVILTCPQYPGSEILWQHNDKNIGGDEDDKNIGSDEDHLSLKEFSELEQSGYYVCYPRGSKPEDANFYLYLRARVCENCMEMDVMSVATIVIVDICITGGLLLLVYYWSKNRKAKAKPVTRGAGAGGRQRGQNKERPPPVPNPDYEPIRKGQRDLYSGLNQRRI
T1 sequence (P09693 23-182, chain 2 of 4): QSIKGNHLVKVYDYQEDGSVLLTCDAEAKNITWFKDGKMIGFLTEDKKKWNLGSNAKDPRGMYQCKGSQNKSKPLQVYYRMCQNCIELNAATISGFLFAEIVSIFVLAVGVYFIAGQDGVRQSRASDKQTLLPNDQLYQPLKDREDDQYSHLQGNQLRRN
T1 sequence (P04234 22-171, chain 3 of 4): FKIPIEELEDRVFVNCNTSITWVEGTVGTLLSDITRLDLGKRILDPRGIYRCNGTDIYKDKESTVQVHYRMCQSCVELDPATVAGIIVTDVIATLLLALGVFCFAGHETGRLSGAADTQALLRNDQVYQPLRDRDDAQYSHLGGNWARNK
T1 sequence (P20963 22-164, chain 4 of 4): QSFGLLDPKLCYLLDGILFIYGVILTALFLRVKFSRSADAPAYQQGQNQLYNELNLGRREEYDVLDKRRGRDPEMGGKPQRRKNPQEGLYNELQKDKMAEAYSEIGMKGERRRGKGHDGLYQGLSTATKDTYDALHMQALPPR

B1: CD3 × CD33-BspAb126 (bispecific antibody)
chain 1: QVQLQESGPGLVKPSETLSLTCTVSGGSINSYYWSWIRQPAGKCLEWIGRIYTSGSTNYNPSLKSRVTMSVDTSKKQFSLKLSSVTAADTAVYYCARERISRLYFDYWGQGILVTVSSGGGGSGGGGSGGGGSGGGGSNFMLTQPHSVSESPGKTVTISCTRSSGSIASNYVQWYQQRPGSSPTTVIYEDNQRPSGVPDRFSGSIDSSSNSASLTISGLKTEDEADYYCQSYDRSNRVFGCGTKLTVLDKTHTCPPCPAPEFEGGPSVFLFPPKPKDTLMISRTPEVTCVVVDVSHEDPEVKFNWYVDGVEVHNAKTKPREEQYNSTYRVVSVLTVLHQDWLNGKEYKCKVSNKALPASIEKTISKAKGQPREPQVYTLPPCREEMTKNQVSLWCLVKGFYPSDIAVEWESNGQPENNYKTTPPVLDSDGSFFLYSKLTVDKSRWQQGNVFSCSVMHEALHNHYTQKSLSLSPGK
chain 2: EVQLVQSGAEVKKPGSSVKVSCKASGYTITDSNIHWVRQAPGQSLEWIGYIYPYNGGTDYNQKFKNRATLTVDNPTNTAYMELSSLRSEDTAFYYCVNGNPWLAYWGQGTLVTVSSASTKGPSVFPLAPSSKSTSGGTAALGCLVKDYFPEPVTVSWNSGALTSGVHTFPAVLQSSGLYSLSSVVTVPSSSLGTQTYICNVNHKPSNTKVDKRVEPKSCDKTHTCPPCPAPEFEGGPSVFLFPPKPKDTLMISRTPEVTCVVVDVSHEDPEVKFNWYVDGVEVHNAKTKPREEQYNSTYRVVSVLTVLHQDWLNGKEYKCKVSNKALPASIEKTISKAKGQPREPQVCTLPPSREEMTKNQVSLSCAVKGFYPSDIAVEWESNGQPENNYKTTPPVLDSDGSFFLVSKLTVDKSRWQQGNVFSCSVMHEALHNRFTQKSLSLSPGK
chain 3: DIQLTQSPSTLSASVGDRVTITCRASESLDNYGIRFLTWFQQKPGKAPKLLMYAASNQGSGVPSRFSGSGSGTEFTLTISSLQPDDFATYYCQQTKEVPWSFGQGTKVEVKRTVAAPSVFIFPPSDEQLKSGTASVVCLLNNFYPREAKVQWKVDNALQSGNSQESVTEQDSKDSTYSLSSTLTLSKADYEKHKVYACEVTHQGLSSPVTKSFNRGEC
Take B1: the figures for the “% Positive” value in [1] and in [2] were 98.3% and 99.7%, respectively. The gMFI worked out at 56000 gMFI in test [1], 161000 gMFI in test [2], 15700 gMFI in test [3] and 26000 gMFI in test [4]. In the test with recombinant CD3 proteins [5], the Kd turned out to be 78.4 nM. Further, the koff with recombinant CD3 proteins [5] amounted to 0.0117 s⁻¹. Further, the on-rate constant (kon) with recombinant CD3 proteins [5] is 149000 M⁻¹ s⁻¹. Also, the “Jurkat WT/KO (Fold)” value in test [6] stood at 5.3 fold; in test [7] it was 8.8 fold.

B2: CD3 × CD33-BspAb44 (bispecific antibody)
chain 1: EVQLVESGGGLVKPGGSLRLSCAASGFTFSRYSMNWVRQAPGKCLKWVSSISSSGSYKYYADSVKGRFTISRDNAKNSLYLQMNSLRAEDTAVYYCAREPPTLGMDYWGQGTLVTVSSGGGGSGGGGSGGGGSGGGGSNFMLTQPHSVSESPGKTVTISCTRSSGSIASNYVQWYQQRPGSSPTTVIYEDNQRPSGVPDRFSGSIDSSSNSASLTISGLKTEDEADYYCQSFDNSNRVFGCGTKLTVLDKTHTCPPCPAPEFEGGPSVFLFPPKPKDTLMISRTPEVTCVVVDVSHEDPEVKFNWYVDGVEVHNAKTKPREEQYNSTYRVVSVLTVLHQDWLNGKEYKCKVSNKALPASIEKTISKAKGQPREPQVYTLPPCREEMTKNQVSLWCLVKGFYPSDIAVEWESNGQPENNYKTTPPVLDSDGSFFLYSKLTVDKSRWQQGNVFSCSVMHEALHNHYTQKSLSLSPGK
chain 2: B1 chain 2
chain 3: B1 chain 3
In the case of B2, the “% Positive” value in [1] and in [2] was 99.5% each time. Also, the gMFI in [1] was determined as 475000 gMFI; in test [2], 508000 gMFI; in test [3], 57500 gMFI; in test [4] it was 54200 gMFI. Further, the entries for the “Jurkat WT/KO (Fold)” value in [6] and in [7] were 13.1 fold and 12.9 fold, respectively.

B3: CD3 × CD33-BspAb116 (bispecific antibody)
chain 1: NFMLTQPHSVSESPGKTVTISCTRSSGSIASNYVQWYQQRPGSSPTTVIYEDNQRPSGVPDRFSGSIDSSSNSASLTISGLKTEDEAYYYCQSFDSSNRVFGCGTKLTVLGGGGSGGGGSGGGGSGGGGSQVQLQESGPGLVKPSQTLSLTCTVSGGSISSGGYYWSWIRQHPGKCLEWIGYIYYSGSTYYNPSLKSRVTISVDTSKDQFSLKLSSVTAADTAVYYCARERKTSLPFDIWGQGTMVTVSSDKTHTCPPCPAPEFEGGPSVFLFPPKPKDTLMISRTPEVTCVVVDVSHEDPEVKFNWYVDGVEVHNAKTKPREEQYNSTYRVVSVLTVLHQDWLNGKEYKCKVSNKALPASIEKTISKAKGQPREPQVYTLPPCREEMTKNQVSLWCLVKGFYPSDIAVEWESNGQPENNYKTTPPVLDSDGSFFLYSKLTVDKSRWQQGNVFSCSVMHEALHNHYTQKSLSLSPGK
chain 2: B1 chain 2
chain 3: B1 chain 3
Take B3: in the test with recombinant CD3 proteins [8], the Kd was 163 nM, the koff was found to be 0.0168 s⁻¹ and the kon turned out to be 103000 M⁻¹ s⁻¹.

B4: CD3 × CD33-BspAb48 (bispecific antibody)
chain 1: QVTLKESGPGILQPSQTLSLTCSFSGFSLSTFGMGVGWIRQPSGKCLEWLAHIWWDDDKYYNPALKSRLTISKDTSKNQVFLKIANVDTADTATYYCARLGYYPYWFFDVWGTGTTVTVSSGGGGSGGGGSGGGGSGGGGSNFMLTQPHSVSESPGKTVTIACTRSSGSIASNYVQWYQQRPGSSPTTVIYEDNQRPSGVPDRFSGSIDSSSNSASLTISGLKTEDEADYYCQSYDSSNQVFGCGTKLTVLDKTHTCPPCPAPEFEGGPSVFLFPPKPKDTLMISRTPEVTCVVVDVSHEDPEVKFNWYVDGVEVHNAKTKPREEQYNSTYRVVSVLTVLHQDWLNGKEYKCKVSNKALPASIEKTISKAKGQPREPQVYTLPPCREEMTKNQVSLWCLVKGFYPSDIAVEWESNGQPENNYKTTPPVLDSDGSFFLYSKLTVDKSRWQQGNVFSCSVMHEALHNHYTQKSLSLSPGK
chain 2: B1 chain 2
chain 3: B1 chain 3
Take B4: the “% Positive” value is 3.4% in test [1] and 82.2% in test [2]. Moreover, the gMFI in [1] came to 2870 gMFI; in test [2], 12200 gMFI; in [3], 2260 gMFI; in [4], 5170 gMFI. The “Jurkat WT/KO (Fold)” value in [6] was 1.1 fold; in [7] it was 2.5 fold.

B5: CD3 × CD33-BspAb79 (bispecific antibody)
chain 1: B1 chain 1 with N30S, T53A, N58Y, K76N, R99K, I100R, I112T, A225G
chain 2: B1 chain 2
chain 3: B1 chain 3
With B5, in the test with recombinant CD3 proteins [8], the Kd is 456 nM, the koff is 0.0829 s⁻¹ and the kon was found to be 182000 M⁻¹ s⁻¹.

B6: CD3 × CD33-BspAb124 (bispecific antibody)
chain 1: not shown
chain 2: B1 chain 2
chain 3: B1 chain 3
As for B6, in the test with recombinant CD3 proteins [9], the Kd is less than 1 pM, the koff was less than 1e-07 s⁻¹ and the kon turned out to be 12500 M⁻¹ s⁻¹.

B7: Gemtuzumab (antibody, V domains shown)
VH: EVQLVQSGAEVKKPGSSVKVSCKASGYTITDSNIHWVRQAPGQSLEWIGYIYPYNGGTDYNQKFKNRATLTVDNPTNTAYMELSSLRSEDTAFYYCVNGNPWLAYWGQGTLVTVSS
VL: DIQLTQSPSTLSASVGDRVTITCRASESLDNYGIRFLTWFQQKPGKAPKLLMYAASNQGSGVPSRFSGSGSGTEFTLTISSLQPDDFATYYCQQTKEVPWSFGQGTKVEVKR
notes: also called anti-CD33 control
Turning to B7, the “% Positive” value in [1] worked out at 1.2%; in [2] it was 0.7%. Further, the gMFI worked out at 1770 gMFI in [1], 1680 gMFI in test [2], 1650 gMFI in [3] and 1690 gMFI in test [4]. Moreover, the “Jurkat WT/KO (Fold)” value in test [6] and in test [7] was 0.9 fold each time.

For orientation: Kd means the concentration at which binding is half-saturated. The term koff denotes the first-order rate constant of dissociation. The kon is the second-order rate constant of association.
